“Also recorded” adds a separate entry of the source.
T1: CD133 (Homo sapiens, UniProt O43490)
T1 construct: endogenous in cells
T1 sequence (O43490 20-865): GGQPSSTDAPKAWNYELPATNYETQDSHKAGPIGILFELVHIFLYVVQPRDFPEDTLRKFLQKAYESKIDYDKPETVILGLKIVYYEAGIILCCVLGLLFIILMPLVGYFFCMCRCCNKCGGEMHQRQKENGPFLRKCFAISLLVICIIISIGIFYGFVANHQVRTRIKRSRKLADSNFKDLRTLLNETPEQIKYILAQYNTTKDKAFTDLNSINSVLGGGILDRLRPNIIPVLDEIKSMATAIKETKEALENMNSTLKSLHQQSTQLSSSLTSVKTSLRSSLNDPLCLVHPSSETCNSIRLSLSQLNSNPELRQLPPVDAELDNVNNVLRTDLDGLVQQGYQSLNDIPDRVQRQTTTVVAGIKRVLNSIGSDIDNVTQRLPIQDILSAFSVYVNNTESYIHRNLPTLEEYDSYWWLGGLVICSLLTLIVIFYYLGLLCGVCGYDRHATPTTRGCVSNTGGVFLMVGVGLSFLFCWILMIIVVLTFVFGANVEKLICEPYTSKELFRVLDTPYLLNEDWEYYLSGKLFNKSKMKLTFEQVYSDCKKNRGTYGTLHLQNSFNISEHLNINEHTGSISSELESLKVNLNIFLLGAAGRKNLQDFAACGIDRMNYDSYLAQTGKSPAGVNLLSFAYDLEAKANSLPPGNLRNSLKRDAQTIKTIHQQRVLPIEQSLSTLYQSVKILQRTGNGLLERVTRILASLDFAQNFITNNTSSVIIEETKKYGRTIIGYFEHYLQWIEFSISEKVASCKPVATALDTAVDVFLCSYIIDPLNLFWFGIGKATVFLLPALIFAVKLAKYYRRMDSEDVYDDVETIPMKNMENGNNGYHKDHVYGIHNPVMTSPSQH

B1: No. 11 scFv: soluble scFv of the Hybridoma Clone 7 antibody expressed in E. coli Top10F', SEQ ID NO:58; also used FITC-labeled (protein)
scFv: MDIVLSQSPAIMSASPGEKVTISCSASSSVSYMYWYQQKPGSSPKPWIYRTSNLASGVPARFSGSGSGTSYSLTISSMEAEDAATYYCQQYHSYPPTFGAGTKLELKSSGGGGSGGGGGGSSRSSLEVKLVESGPELKKPGETVKISCKASGYTFTDYSMHWVNQAPGKGLKWMGWINTETGEPSYADDFKGRFAFSLETSASTAYLQINNLKNEDTATYFCATDYGDYFDYWGQGTTLTVSS
modifications: optionally FITC-labeled; scFv polypeptide
B2: Hybridoma Clone 7: monoclonal antibody produced by Hybridoma Clone 7 that specifically binds to human CD133 (antibody, V domains shown)
VL: DIVLSQSPAIMSASPGEKVTISCSASSSVSYMYWYQQKPGSSPKPWIYRTSNLASGVPARFSGSGSGTSYSLTISSMEAEDAATYYCQQYHSYPPTFGAGTKLELK
VH: LEVKLVESGPELKKPGETVKISCKASGYTFTDYSMHWVNQAPGKGLKWMGWINTETGEPSYADDFKGRFAFSLETSASTAYLQINNLKNEDTATYFCATDYGDYFDYWGQGTTLTVSS

Experiments:
[1] = target: T1, CD133; assay: Flow cytometry of FITC-labeled CD133scFv on CD133-transfected HEK293-TLR2 cells; format: binding; details: CD133-transfected vs control HEK293-TLR2 cells; listed as CD133scFv
Protocol: FIG. 4: CD133scFV recognizes the CD133 marker. The CD133scFv was labeled with FITC. An oligonucleotide was prepared from the known GenBank sequence of CD133 and then transfected into HEK293-TLR2 cells using a polyethylenimine (PEI)-DNA complex. The cells were incubated with anti-CD133scFv-FITC complex, washed, and then analyzed by flow cytometry. Data are represented in standard histogram format whereby % positive cells are plotted against fluorescence intensity. […] Controls include transfected cells reacted with empty vector, transfected cells reacted with an isotype control, or untransfected cells that are not reacted with CD133-FITC.
Ult-Luc or CMV-CD133 pDNA constructs were transfected into HEK293-TLR2 cells using JetPEI transfection reagent according to the manufacturer's instructions (Polyplus Transfection). Briefly, 7.5×10^5 cells/well were seeded in a 6-well plate. Twelve hours later, 2.5 μg of each pDNA were diluted in 5 μl 5% dextrose and mixed with 0.35 μL JetPEI also in 5 μl 5% dextrose. Following incubation for 15 minutes, the transfection mix was added to the cells. […]
CD133scFv was labeled with FITC at a FITC:scFv ratio of 24:1 (Invitrogen, Carlsbad, Calif.) and dialyzed to remove any free unbound FITC. […] Data are represented in standard histogram format whereby % positive cells are plotted against fluorescence intensity. […]

[2] = target: T1, CD133; assay: Tunicamycin glycosylation inhibition, Western blot of Caco-2 lysates; format: binding; details: Caco-2 cells treated with tunicamycin
Protocol: FIG. 3: Specificity of antibody produced by Hybridoma Clone 7. (A) Flow cytometry. Cells were incubated with primary antibody from either Hybridoma Clone 7 or 293C3 (Militenyi), followed by incubation with a labeled secondary antibody, and then analyzed by flow cytometry. Antibody from the newly developed anti-CD133 Hybridoma Clone 7 (open black histogram) stains very specifically the CD133-overexpressing cells, Caco-2 (iii), GBM6 (iv) and U87 cells transfected with CD133 (ii) but not CD133 negative U87 cells (i). Immunostaining using the monoclonal antibody produced by Hybridoma Clone 7 is compared to clone 293C3 (open grey histogram). Isotype control is represented by solid grey histogram. (B) Tunicamycin mediated glycosylation inhibition. Caco-2 cells were treated with increasing doses of tunicamycin (2.5, 5, 10, 20 μg/ml) for 3 days. DMSO treated cells or untreated cells served as controls. Cells were lysed and then analyzed by Western blotting using the monoclonal antibody produced by Hybridoma Clone 7 or GAPDH antibodies.
Caco-2 cells were seeded in 6-well plates and treated with 2.5 μg/ml-20 μg/ml tunicarmycin or vehicle (medium containing 0.1% DMSO) for three days. […] The lysates were centrifuged to remove cell debris and then analyzed by western blotting using either Hybridoma Clone 7 or anti-GAPDH (Sigma-Aldrich Corp., St. Louis, Mo.) as primary antibodies.

[3] = tested on: CD133^+ Caco-2 cells; assay: Immunofluorescence of fixed Caco-2 cells with hybridoma supernatants; format: binding, human; details: hybridoma supernatant
Protocol: FIG. 2: Analysis of the newly generated CD133 hybridoma. Supematants of hybridoma clones were tested as a primary antibody in western blot (A) and Immunofluorescence (B) assays. Pre-immunized serum (-ve) or post immune anti sera (a.s.) served as controls. For western blot, Caco-2 lysates normalized for protein concentration were loaded onto a SDS-PAGE gel, resolved, blotted onto a nitrocellulose membrane and cut into strips. Each strip was probed with supernatant from the identified hybridoma. Membrane in Lane 1 was probed with a commercially available antibody (ab 19898, Abcam) and served as an additional positive control. For immunofluorescence, Caco-2 cells were fixed and immunostained with the hybridoma supernatants. A commercially available antibody (293C3, Militenyi) was used as additional positive control. Scale bars in the panel represent 200 micrometers. Supernatant of Hybridoma Clone 7 was used in the immunohistochemical analysis of primary glioblastoma and kidney tissue (C).
Caco-2 cells were plated in 16-well chamber slides. After four days of growth, the cells were fixed with 4% paraformaldehyde, washed in DPBS and then incubated in 200 mM glycine for 10 minutes. The cells were then blocked with a solution of 0.5% BSA and 0.2% gelatin in PBS for 10 minutes. […] The cells were further washed with PBS and then visualized under a fluorescence microscope. […]

Molecule	reaction of FITC-labeled scFv with cells [1]	epitope recognized (glycosylated or not) [2]	immunofluorescence staining of the Caco-2 cell membrane [3]
B1	Only the CD133-transfected cells reacted; also recorded: Only the CD133 transfected cells reacted	–	–
B2	–	specifically binds to an non-glycosylated epitope	robustly stained

Reference: patent publication US11098109B2, “Single-chain variable fragment anti-CD133 antibodies and uses thereof” (REGENTS OF THE UNIVERSITY OF MINNESOTA, priority 2010, dated 2021)
